We go through 16 sequences from the nanobody polyreactivity screen of Harvey et al. (2022).

The nature of the data set: yeast display, Sf9 membrane polyspecificity reagent, FACS + sequencing; frameworks hold sequencing errors. The method in brief: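 Sorting gates, low and high (top ~1%), were placed on anti-HA fluorescence to track expression and on streptavidin fluorescence to track reagent binding. A clone's polyreactivity label is taken from the gate it came out of. The reagent was 10% biotinylated, detergent-solubilized Sf9 membrane, applied for 1 hour at 4 °C to galactose-induced yeast display cells.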
In the case of “QVQLVESGGGLVQAGGSLRLSCAACGRTLVRYAMGWYRQAPGKERELVATITRGGSTNYADSVKGRFTISRDNAKNTVYLQMNSLKPEDTAVYYCARDLYYSSRYSPYGRYDYWGQGTQVTVSS”, the “polyreactivity (PSR sort gate)” value is recorded as “high polyreactivity”.

Turning to “QVQLVESGGGLVQAGGSLRLSCAACGRTSSIYAMGWYRQAPGKERELVATITGGAVSTSYADSVKGRFTISRDNAKNTVYLQMNSLKPEDSAVYYCADDHWRYRSRPVNYWGLGTQVTVSS”, the “polyreactivity (PSR sort gate)” value is listed as “high polyreactivity”.

On to “QVQLVESGGGLVQAGGSLRLSCAACGSIFDYYTMGWYRQAPGKEREFVAGISDSGGSTNYADSVKGRFTISRDNAKNTVYLQINSLKPEDTAVYYCNAEYVGWFYKYDYWGQGTQVTVSS”, for which the “polyreactivity (PSR sort gate)” value is “high polyreactivity”.

Regarding “QVQLVESGGGLVQAGGSLRLSCAACGSIIYRNAMGWYRPAPGKERELVAAIRTSSGSTYYADSVKGRFTISRDNAKNTVYLQMNSLKPEDTAVYYCAAPRLYGYYSWGQGTQVTVSS”, the “polyreactivity (PSR sort gate)” value is given as “low polyreactivity”.

For “QVQLVESGGGLVQAGGSLRLSCAACGSTFFRNAMGWYRQAPGKERELVAAISKSGTSTYYADSVKGRFTISRDNAKNTVYLQMNSLKPEDTAVYYCAADSRYPWRGDYWGQGTQVTVSS”, the “polyreactivity (PSR sort gate)” value is “high polyreactivity”.

Consider “QVQLVESGGGLVQAGGSLRLSCAAMGWYRPAPGKERELVATITWSGGSTYYADSVKGRFTISRDNAKNTVYLQMNSLKPEDNAVYYCNARATLLSPANTIRGYDYWGQGTQVTVSS”, for which the “polyreactivity (PSR sort gate)” value was “low polyreactivity”.

In the case of “QVQLVESGGGLVQAGGSLRLSCAAPGSTFVRYAMGWYRQAPGKERELVAAISKSGGSTYYADSVKGRFTISRDNAKNTVYLQMYSLKPEDTAVYYCAATTTRYSYEYWGQGTQVTVSS”, the “polyreactivity (PSR sort gate)” value is listed as “low polyreactivity”.

Regarding “QVQLVESGGGLVQAGGSLRLSCAASAFTFGNYAMGWYRQAPGKERELVAVISRGGSTYYADSVKGRFTISRDYAKNTVYLQMNSLKPEDTAVYFCAARAFPPYGYDYWGQGTQVTVSS”, the “polyreactivity (PSR sort gate)” value is on record as “high polyreactivity”.

In the case of “QVQLVESGGGLVQAGGSLRLSCAASAFTFYSNAMGWYRQAPGTEREVVASISASGGSTYYADSVKGRFTISRDNAKNSVYLQMNSLKPEDTAVYYCAVYWSYLFDYLGQGTQVTVSS”, the “polyreactivity (PSR sort gate)” value is listed as “high polyreactivity”.

For “QVQLVESGGGLVQAGGSLRLSCAASAFTLARYAMGWYRQAPGKERELVAAITKRGGSTYYADSVKGRFTISRDNAKKTVYLQMNSLKPEDTAVYYCNGASRYSQTFEFDYWGQGTQVTVSS”, the “polyreactivity (PSR sort gate)” value is reported as “high polyreactivity”.

Take “QVQLVESGGGLVQAGGSLRLSCAASAFTLYPYAKGWYRQAPGKERELVAAISGSGGSTYYADSVKGRFTISRDNAKNTVYLQMNRLKPEDTAVYYCAARYLDVRPFYYWGQGTQVTVSS”: the “polyreactivity (PSR sort gate)” value is “high polyreactivity”.

“QVQLVESGGGLVQAGGSLRLSCAASAGIIRTYAMGWYRQAPGKEMELVAAITFSAGSTFYADSVKGRFTISRDNAKNTVYLQMNSLKPEDTAVYYCNKDGGGDSYWYDYWGQGTQVTVSS”: the “polyreactivity (PSR sort gate)” value was “low polyreactivity”.

In the case of “QVQLVESGGGLVQAGGSLRLSCAASAITLDGNAMGWYIQAPGKERELVAAITSGGGTNYADSVKGRFTISRDNAKNTVYLEMNSLKQEDTAVYYCAETGRLLTSNYWGLGTQVTVSS”, the “polyreactivity (PSR sort gate)” value is listed as “low polyreactivity”.

On to “QVQLVESGGGLVQAGGSLRLSCAASALIFKTYTMGWYRQAPGKEREFVAAITTSGGSTYYADSVKGRFTISRDNAKNTVYLQMNSLKPEDTAVYYCAAVWWKSFQGSSYRMNYWGQGTQVTVSS”, for which the “polyreactivity (PSR sort gate)” value was “high polyreactivity”.

On to “QVQLVESGGGLVQAGGSLRLSCAASARIYDLNAMGWYRQAPGKERELVAAITWSGDSTYYADSVKGRFTISRDTAKNTVYLQMNSLKPEDTAVYYCAAASRTSYSWVDYEFDYWGQGTQVTVSS”, for which the “polyreactivity (PSR sort gate)” value is “low polyreactivity”.

Take “QVQLVESGGGLVQAGGSLRLSCAASASIFLVYAMGWYRQAPGKERELVAAISRSGRTYADSVKGRFTISRDNAKNTVYLQMNSLKPEDTAVYYCAAGTKRRFEGDYWGQGTQVTVSS”: the “polyreactivity (PSR sort gate)” value is “high polyreactivity”.
